Where two headings read alike, the source gives them in different places.
B1: mini-Gs/q R70 (domain or fragment)
chain: IEKQLQKDKQVYRATHRLLLLGADNSGKSTIVKQMRIYHTSGIFETKFQVDKVNFHMFDVGGQRDERRKWIQCFNDVTAIIFVVDSSDYNRLQEALNDFKSIWNNRWLRTISVILFLNKQDLLAEKVLAGKSKIEDYFPEFARYTTPEDATPEPGEDPRVTRAKYFIRDEFLRISTASGDGRHYCYPHFTCAVDTENARRIFNDCKDIILQMNLREYNLV
B2: mini-Gs/i R43 with C96A (domain or fragment)
chain: IEKQLQKDKQVYRATHRLLLLGADNSGKSTIVKQMRIYHTSGIFETKFQVDKVNFHMFDVGGQRDERRKWIQAFNDVTAIIFVVDSSDYNRLQEALNDFKSIWNNRWLRTISVILFLNKQDLLAEKVLAGKSKIEDYFPEFARYTTPEDATPEPGEDPRVTRAKYFIRDEFLRISTASGDGRHYCYPHFTCAVDTENARRIFNDVTDIIIKMNLRDCGLF
B3: mini-Gs 393 with C96A (domain or fragment)
chain: GIEKQLQKDKQVYRATHRLLLLGADNSGKSTIVKQMRIYHGGSGGSGGTSGIFETKFQVDKVNFHMFDVGGQRDERRKWIQAFNDVTAIIFVVDSSDYNRLQEALNDFKSIWNNRWLRTISVILFLNKQDLLAEKVLAGKSKIEDYFPEFARYTTPEDATPEPGEDPRVTRAKYFIRDEFLRISTASGDGRHYCYPHFTCAVDTENARRIFNDCRDIIQRMHLRQYELL
B4: mini-Go1 R12 (domain or fragment)
chain: IEKNLKEDGISAAKDVKLLLLGADNSGKSTIVKQMKIIHTTGIVETHFTFKNLHFRLFDVGGQRSERKKWIHCFEDVTAIIFCVDLSDYNRMHESLMLFDSICNNKFFIDTSIILFLNKKDLFGEKIKKSPLTICFPEYTGPNTYEDAAAYIQAQFESKNRSPNKEIYCHMTCATDTNNAQVIFDAVTDIIIANNLRGCGLY

Tests used:
[1] = target: T1, avi-β1AR-E (turkey β1-adrenergic receptor, β1AR-E construct with N-terminal biotinylated avi-tag) (turkey, UniProt P07700 1-367, Δ3-32 | Δ244-271 | C358A^8.59 | C116L^3.27 | R68S^1.59 | F327A^7.37 | …, biotin on the avi-tag); assay: BLI; isoprenaline
[2] = target: T2, avi-β1AR-W (turkey β1-adrenergic receptor, β1AR-MetΔ5 construct with N-terminal biotinylated avi-tag) (turkey, UniProt P07700 1-367, Δ3-32 | Δ244-271 | C358A^8.59 | C116L^3.27 | R68S^1.59 | E130W^3.41 | …, biotin on the avi-tag); assay: BLI; isoprenaline
[3] = target: T2, avi-β1AR-W (turkey β1-adrenergic …); assay: BLI; isoprenaline; remark: listed apart in the source
[4] = target: T1, avi-β1AR-E (turkey β1-adrenergic …); assay: BLI; xamoterol
[5] = target: T2, avi-β1AR-W (turkey β1-adrenergic …); assay: BLI; xamoterol
[6] = target: T2, avi-β1AR-W (turkey β1-adrenergic …); assay: BLI; isoprenaline; remark: listed apart in the source
[7] = target: T1, avi-β1AR-E (turkey β1-adrenergic …); assay: BLI; isoprenaline; remark: listed apart in the source
[8] = target: T2, avi-β1AR-W (turkey β1-adrenergic …); assay: BLI; isoprenaline; remark: listed apart in the source
[9] = target: T1, avi-β1AR-E (turkey β1-adrenergic …); assay: BLI; salbutamol
[10] = target: T2, avi-β1AR-W (turkey β1-adrenergic …); assay: BLI; salbutamol

T2 sequence (P07700 other isoform, or with tags, fused parts or gaps with the stated changes): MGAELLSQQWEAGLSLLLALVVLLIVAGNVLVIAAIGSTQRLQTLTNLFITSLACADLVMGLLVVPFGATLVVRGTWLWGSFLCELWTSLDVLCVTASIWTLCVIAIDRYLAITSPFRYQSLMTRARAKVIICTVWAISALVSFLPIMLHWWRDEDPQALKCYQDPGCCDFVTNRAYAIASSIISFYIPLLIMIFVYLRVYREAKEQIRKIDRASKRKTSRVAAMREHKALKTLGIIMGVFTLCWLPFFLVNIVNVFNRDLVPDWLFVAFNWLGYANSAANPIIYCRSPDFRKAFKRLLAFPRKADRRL
T1 sequence (P07700 other isoform, or with tags, fused parts or gaps with the stated changes): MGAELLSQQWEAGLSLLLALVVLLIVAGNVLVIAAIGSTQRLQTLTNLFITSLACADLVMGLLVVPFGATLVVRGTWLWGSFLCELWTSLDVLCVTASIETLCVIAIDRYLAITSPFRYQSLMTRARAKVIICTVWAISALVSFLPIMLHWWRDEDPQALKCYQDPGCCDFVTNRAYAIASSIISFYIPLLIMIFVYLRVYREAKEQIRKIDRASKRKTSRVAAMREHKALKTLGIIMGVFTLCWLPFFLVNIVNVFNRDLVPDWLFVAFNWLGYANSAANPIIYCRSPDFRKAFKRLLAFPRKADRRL

Binder	koff [1] [s⁻¹]	koff [2] [s⁻¹]	Kd [3] [nM]	Kd [4] [nM]	Kd [5] [nM]	Kd [6] [nM]	koff [7] [s⁻¹]	koff [8] [s⁻¹]	Kd [9] [nM]	Kd [10] [nM]
B1	0.00343	0.0067	534	–	–	–	–	–	–	–
B2	0.00397	0.00623	2530	–	–	–	–	–	–	–
B3	–	–	–	2360	2970	161	0.00689	0.00625	962	1460
B4	0.00393	0.00941	7410	–	–	–	–	–	–	–

From PMC10864275 (2024)
